Data set [1] concerns MDA-MB-435 established primary tumors. Put plainly: MDA-MB-435 established primary tumor xenograft model. The data set is classed as in vivo, mouse. To be noted: independent study; AB0023 5 mg/kg twice per week, BAPN 100 mg/kg daily.
For the next data set, the target named is T1, LOXL2 (Homo sapiens, UniProt Q9Y4K0).
T1 sequence (Q9Y4K0 26-774): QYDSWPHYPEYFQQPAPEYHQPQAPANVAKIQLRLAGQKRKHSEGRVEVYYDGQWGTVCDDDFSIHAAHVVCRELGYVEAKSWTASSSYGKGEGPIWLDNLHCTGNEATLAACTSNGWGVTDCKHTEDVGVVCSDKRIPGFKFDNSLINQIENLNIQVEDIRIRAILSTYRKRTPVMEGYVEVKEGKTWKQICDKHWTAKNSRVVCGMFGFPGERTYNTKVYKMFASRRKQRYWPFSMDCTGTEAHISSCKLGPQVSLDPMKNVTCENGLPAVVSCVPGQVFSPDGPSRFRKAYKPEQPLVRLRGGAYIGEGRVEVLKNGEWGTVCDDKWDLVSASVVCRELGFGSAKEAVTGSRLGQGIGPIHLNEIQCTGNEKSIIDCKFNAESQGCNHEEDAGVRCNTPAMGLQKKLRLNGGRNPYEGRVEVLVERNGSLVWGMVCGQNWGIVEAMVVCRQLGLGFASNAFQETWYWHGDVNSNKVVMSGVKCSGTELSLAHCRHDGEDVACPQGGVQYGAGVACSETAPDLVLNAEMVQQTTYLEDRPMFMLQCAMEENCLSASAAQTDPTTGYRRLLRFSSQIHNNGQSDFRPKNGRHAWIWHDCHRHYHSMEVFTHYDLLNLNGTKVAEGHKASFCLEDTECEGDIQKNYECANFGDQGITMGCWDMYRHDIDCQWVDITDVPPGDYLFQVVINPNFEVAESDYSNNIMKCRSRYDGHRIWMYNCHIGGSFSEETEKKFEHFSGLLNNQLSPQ
Put plainly: Western blot analysis and ELISA of AB0023 specificity. It is filed as binding. The procedure: A mouse anti-human LOXL2 antibody (AB0023) was obtained by immunization with full-length LOXL2 protein and purified by SEC-HPLC (Tosoh TSKGEL G3000SWXL 7.8×300). Analytical size exclusion chromatography was used to assess antibody stability and purity. Purified AB0023 was run on SDS-PAGE Coomassie (Invitrogen BT 4-12% Gels) reducing and non-reducing gels to assess purity. Potency was examined by ELISA to determine Kd, and effect on LOXL2 enzymatic activity was determined using an Amplex Red Assay (Molecular Probes/Invitrogen, Carlsbad, Calif.). Antibody concentration was measured by absorbance at 280 nm using an Extinction Coefficient Abs 0.1% of 1.4. Identity was assayed by isoelectric focusing (Invitrogen pH 3-10 IEF Gels). For safety analysis, endotoxin levels were measured at a sensitivity range of 0.01-1 EU/ml (Charles River EndoSafe PTS).

Data set [2] has as its system Matrigel plug containing bFGF. Put plainly: In vivo Matrigel plug angiogenesis assay. Details: species or system mouse. To be noted: 30 mg/kg i.p. twice weekly. The procedure:
Athymic female Ncr:Nu/Nu mice were injected subcutaneously in the flank with 0.5 ml high-concentration Matrigel (BD Biosciences, San Jose, Calif.) supplemented with 100 ng/ml FGF and 60 U heparin. Matrigel injections were conducted one week after initiation of treatments with antibodies). Antibodies (or PBST, as a control) were administered by intraperitoneal injection of 30 mg/kg twice weekly. Matrigel plugs were harvested 10 days after implantation by excising the plug together with attached skin, and were fixed in 10% neutral buffered formalin and embedded in paraffin. 5 um sections were cut and stained with hematoxylin and eosin, anti-CD31 or anti-CD34 antibodies to assess degree of vessel formation.

The test system of a further data set is MDA-MB-231 cells. Put plainly: Disseminated bone metastasis model, MDA-MB-231 cells injected in the left ventricle. The data set is classed as in vivo, mouse. The procedure: The therapeutic consequences of inhibiting either LOXL2 or LOX were assessed in a model of disseminated bone metastasis. Specific antibodies targeting LOXL2 or LOX were used to treat mice injected in the left ventricle with ˜1 million labeled MDA-MB-231 cells. The breast tumor cell line MDA-MB-231 has been widely used as a model to study LOX, and expresses all 5 lysyl oxidase-type enzymes (FIG. 11, panel A). The ability of LOXL2 inhibitory antibody AB0023 to reduce tumor burden was compared to LOX-specific antibody M64, which is a monoclonal antibody targeting the same peptide sequence in the LOX enzymatic domain previously described as generating an inhibitory polyclonal antiserum.

Data set [3] is described as follows: Repeat-dose tolerability in mice. The note with it: 50 mg/kg twice per week for 14 weeks.
For a further data set, the system named is MCF7 cells. As to the kind of experiment: Induction of EMT-like phenotype by LOXL2-containing conditioned media (rhodamine-phalloidin staining). The data set is classed as cell-based. To be noted: MDA-MB231 or Hs-578t conditioned media; BAPN up to 2 mM. The procedure:
Cells were seeded at 80% confluency, in an 8-chambered slide, 24 hours prior to the day of staining. After 24 hours, media was aspirated and the chambers were washed with PBS. Cells were then fixed with 4% Parafomaldehyde (PFA) for 20 minutes at room temperature and then permeabilized with 0.5% Saponin (JT Baker, Phillipsburg, N.J.) for 5 minutes at room temperature. Cells were then stained for 15 minutes at room temperature with a 1:100 dilution of rhodamine phalloidin (Invitrogen, Carlsbad, Calif.). Slides were mounted with Vectashield (Vector Laboratories, Burlingame, Calif.).
MCF7 or SW620 cells were seeded at 50,000 cells per well of an 8-chambered culture slide in HGDMEM (high-glucose Dulbecco's modified Eagle's medium containing 4.5 g/l glucose)+10% FBS, 2 mM L-glutamine, 24 hours prior to being exposed to conditioned medium (CM). 500 uls of fresh conditioned medium from MDA MB 231 cells was added to the chambers containing MCF7 cells. The cells were incubated with the CM for 48-96 hours. Conditioned medium from MCF7 or SW620 cells was used as a negative control. After 48-96 hours incubation with CM, the cells were stained with rhodamine-phalloidin as described above.

Where only a bound is given, the exact number is not on record here.

This note sets out measurements from patent US20110076272A1, “THERAPEUTIC METHODS AND COMPOSITIONS” (priority 2009, published 2011).

B1: AB0023: mouse anti-human LOXL2 monoclonal antibody; heavy chain variable region SEQ ID NO:1, light chain variable region SEQ ID NO:2 (antibody, listed as Mus musculus, V domains shown)
VH: MEWSRVFIFLLSVTAGVHSQVQLQQSGAELVRPGTSVKVSCKASGYAFTYYLIEWVKQRPGQGLEWIGVINPGSGGTNYNEKFKGKATLTADKSSSTAYMQLSSLTSDDSAVYFCARNWMNFDYWGQGTTLTVSS
VL: MRCLAEFLGLLVLWIPGAIGDIVMTQAAPSVSVTPGESVSISCRSSKSLLHSNGNTYLYWFLQRPGQSPQFLIYRMSNLASGVPDRFSGSGSGTAFTLRISRVEAEDVGVYYCMQHLEYPYTFGGGTKLEIK
modifications: Heavy chain; Light chain
With B1, in data set [1], the “reduction in collagen production, Sirius red staining” value was determined as 47%; the “reduction in fibroblast activation, αSMA positivity” value was over 90%; the “reduction in tumor vasculature, CD31 signal” value is 52%; the “reduction in tumor volume after 46 days” value is reported as 38.4%. Also, the “cross-reactivity with other lysyl oxidase-type enzymes” value in the data set with LOXL2 was “no cross-reactivity”. The “CD31 positive cells in the matrigel plugs” value in data set [2] (p=0.0168) was “significant decrease”. Moreover, the “reduction in average number of vessels in plugs versus vehicle” value in data set [2] (plugs at day 10, p=0.0319) is about 7 fold. The “reduction in tumor cell burden in the femurs, by median value” in the data set with MDA-MB-231 cells (day 28, p=0.0021) turned out to be 127 fold. Further, the “reduction in tumor cell burden in total ventral bone, by median value” with MDA-MB-231 cells (day 28, p=0.0197) amounted to 28 fold. The survival result with MDA-MB-231 cells (separate study, 30 mg/kg AB0023 twice weekly in combination with 5 mg/kg Paclitaxel once per week, p=0.025) was “significant survival benefit”. Moreover, in data set [3], the tolerability result is given as “well-tolerated”. In the data set with MCF7 cells, the “remodeling of the actin cytoskeleton induced by LOXL2-containing conditioned media” value is reported as “abrogated”.
